According to US20110195900A1, “PEPTIDIC PTH RECEPTOR AGONISTS” (FERRING B.V., priority 2008, published 2011):
Starred links: 1 amine or outer side, 2 acyl side, 3 side chain; linkers in the order of their positions; H or OH if unused. Non-standard residues stand in square brackets, D forms with d. No end group written: not given here. hSer(OMe) = COCC[C@H](N[*:1])C(=O)[*:2]; 1Nal = N[C@@H](Cc1cccc2ccccc12)C(=O)O; 2Nal = N[C@@H](Cc1ccc2ccccc2c1)C(=O)O; β3hI = CC[C@H](C)[C@H](N)CC(=O)O; β3hE = N[C@@H](CCC(=O)O)CC(=O)O; Nle = CCCC[C@H](N)C(=O)O; β3hA = C[C@H](N)CC(=O)O; Aib = CC(C)(N)C(=O)O; βAla = NCCC(=O)O

Assays:
[1] = target: human parathyroid hormone receptor 1 (human, UniProt Q03431); assay: cell-based or functional assay
[2] = target: human parathyroid hormone receptor 2 (human, UniProt P49190); assay: cell-based or functional assay

Binder	hPTHR-1 EC50 (nM), CRE-luciferase reporter gene assay [1] [nM]	hPTHR-2 EC50 (nM), luciferase reporter gene assay [2] [nM]
SVSEIQL[Nle]HNLGKHLNS[Nle][β3hE]RVE[1Nal]LRKLLQDVHNF-NH2 (N-terminus assumed; SMILES CCCC[C@H](NC(=O)[C@H](CO)NC(=O)[C@H](CC(N)=O)NC(=O)[C@H](CC(C)C)NC(=O)[C@H](Cc1c[nH]cn1)NC(=O)[C@H](CCCCN)NC(=O)CNC(=O)[C@H](CC(C)C)NC(=O)[C@H](CC(N)=O)NC(=O)[C@H](Cc1c[nH]cn1)NC(=O)[C@H](CCCC)NC(=O)[C@H](CC(C)C)NC(=O)[C@H](CCC(N)=O)NC(=O)[C@@H](NC(=O)[C@H](CCC(=O)O)NC(=O)[C@H](CO)NC(=O)[C@@H](NC(=O)[C@@H](N)CO)C(C)C)[C@@H](C)CC)C(=O)N[C@@H](CCC(=O)O)CC(=O)N[C@@H](CCCNC(=N)N)C(=O)N[C@H](C(=O)N[C@@H](CCC(=O)O)C(=O)N[C@@H](Cc1cccc2ccccc12)C(=O)N[C@@H](CC(C)C)C(=O)N[C@@H](CCCNC(=N)N)C(=O)N[C@@H](CCCCN)C(=O)N[C@@H](CC(C)C)C(=O)N[C@@H](CC(C)C)C(=O)N[C@@H](CCC(N)=O)C(=O)N[C@@H](CC(=O)O)C(=O)N[C@H](C(=O)N[C@@H](Cc1c[nH]cn1)C(=O)N[C@@H](CC(N)=O)C(=O)N[C@@H](Cc1ccccc1)C(N)=O)C(C)C)C(C)C) [[Nle^8,18, β-hGlu^19, 1-Nal^23, Leu^27] hPTH (1-34)-NH2]	0.32	29
SVSEIQL[Nle]HNLGKHLNS[β3hI]ERVE[1Nal]LRKLLQDVHKF-NH2 [[Nle^8, β-hIle^18, 1-Nal^23, Leu^27, Lys^33] hPTH (1-34)-NH2]	0.15	32
SVSEIQL[Nle]HNLGKHLSS[β3hI]ERVE[1Nal]LRKLLQDVHNF-NH2 [[Nle^8, Ser^16, β-hIle^18, 1-Nal^23, Leu^27] hPTH (1-34)-NH2]	0.19	20
SVSEIQL[Nle]HNL[Aib]KHLNS[β3hI]ERVE[1Nal]LRKLLQDVHNF-NH2 [[Nle^8, Aib^12, β-hIle^18, 1-Nal^23, Leu^27] hPTH (1-34)-NH2]	0.23	13
SVSEIQL[Nle]HNLGKHLNS[β3hI]ERVE[1Nal]LRKLLQDVHNF-NH2 [[Nle^8, β-hIle^18, 1-Nal^23, Leu^27] hPTH (1-34)-NH2]	0.14	32
SVSEIQL[Nle]HNLGKHLNS[β3hI]ERVE[1Nal]LRKLLQDVHEF-NH2 [[Nle^8, β-hIle^18, 1-Nal^23, Leu^27, Glu^33] hPTH (1-34)-NH2]	0.12	41
SVSEIQL[Nle]HNLGKHLN[βAla][hSer(OMe)]ERVE[1Nal]LRKLLQDVHNF-NH2 [[Nle^8, β-Ala^17, hSer(OMe)^18, 1-Nal^23, Leu^27] hPTH (1-34)-NH2]	0.13	93
SVSEIQL[Nle]HNLGKHLNS[β3hI]ERVE[1Nal]LRKLLQRVHNF-NH2 [[Nle^8, β-hIle^18, 1-Nal^23, Leu^27, Arg^30] hPTH (1-34)-NH2]	0.18	7
SVSEIQL[Nle]HNLGKHLKS[β3hI]ERVE[1Nal]LRKLLQDVHNF-NH2 [[Nle^8, Lys^16, β-hIle^18, 1-Nal^23, Leu^27] hPTH (1-34)-NH2]	0.08	30
SVSEIQL[Nle]HELGKHLNS[β3hI]ERVE[1Nal]LRKLLQDVHNF-NH2 [[Nle^8, Glu^10, β-hIle^18, 1-Nal^23, Leu^27] hPTH (1-34)-NH2]	0.13	3
[Aib]VSEIQL[Nle]HNLGKHLN[βAla][Nle]ERVE[1Nal]LRKLLQDVHNF-NH2 [[Aib^1, Nle^8,18, β-Ala^17, 1-Nal^23, Leu^27] hPTH (1-34)-NH2]	0.06	31
AVSEIQL[Nle]HNLGKHLN[βAla][Nle]ERVE[1Nal]LRKLLQDVHNF-NH2 [[Ala^1, Nle^8,18, β-Ala^17, 1-Nal^23, Leu^27] hPTH (1-34)-NH2]	0.2	89
SVSEIQL[Nle]HNLGKHLNS[β3hI]ERVE[1Nal]LRKLLQSVHNF-NH2 [[Nle^8, β-hIle^18, 1-Nal^23, Leu^27, Ser^30] hPTH (1-34)-NH2]	0.19	19
SVSEIQLXHNLGXHLNSXERVEXLRKLLQDVHNF (Nle^8, Aib^13, β-hIle^18, 1-Nal^23, C-terminal NH2 (amide)) [[Nle^8, Aib^13, β-hIle^18, 1-Nal^23, Leu^27] hPTH (1-34)-NH2]	0.14	68
SVSEIQL[Nle]HNL[Aib][Aib]HLNS[β3hI]ERVE[1Nal]LRKLLQDVHNF-NH2 [[Nle^8, Aib^12,13, β-hIle^18, 1-Nal^23, Leu^27] hPTH (1-34)-NH2]	0.25	34
SVSEIQL[Nle]HNLGKHLNS[β3hI]ERVE[1Nal]LRKLLQDVHNE-NH2 [[Nle^8, β-hIle^18, 1-Nal^23, Leu^27, Glu^34] hPTH (1-34)-NH2]	0.12	57
SVSEIQL[Nle]HNLGKHLNS[β3hA]ERVE[1Nal]LRKLLQDVHNF-NH2 [[Nle^8, β-hAla^18, 1-Nal^23, Leu^27] hPTH (1-34)-NH2]	0.22	61
[Aib]VSEIQL[Nle]HNLGKHLN[βAla][Nle]ERVE[2Nal]LRKKLQDVHNF-NH2 (N-terminus assumed; SMILES CCCC[C@H](NC(=O)CCNC(=O)[C@H](CC(N)=O)NC(=O)[C@H](CC(C)C)NC(=O)[C@H](Cc1c[nH]cn1)NC(=O)[C@H](CCCCN)NC(=O)CNC(=O)[C@H](CC(C)C)NC(=O)[C@H](CC(N)=O)NC(=O)[C@H](Cc1c[nH]cn1)NC(=O)[C@H](CCCC)NC(=O)[C@H](CC(C)C)NC(=O)[C@H](CCC(N)=O)NC(=O)[C@@H](NC(=O)[C@H](CCC(=O)O)NC(=O)[C@H](CO)NC(=O)[C@@H](NC(=O)C(C)(C)N)C(C)C)[C@@H](C)CC)C(=O)N[C@@H](CCC(=O)O)C(=O)N[C@@H](CCCNC(=N)N)C(=O)N[C@H](C(=O)N[C@@H](CCC(=O)O)C(=O)N[C@@H](Cc1ccc2ccccc2c1)C(=O)N[C@@H](CC(C)C)C(=O)N[C@@H](CCCNC(=N)N)C(=O)N[C@@H](CCCCN)C(=O)N[C@@H](CCCCN)C(=O)N[C@@H](CC(C)C)C(=O)N[C@@H](CCC(N)=O)C(=O)N[C@@H](CC(=O)O)C(=O)N[C@H](C(=O)N[C@@H](Cc1c[nH]cn1)C(=O)N[C@@H](CC(N)=O)C(=O)N[C@@H](Cc1ccccc1)C(N)=O)C(C)C)C(C)C) [[Aib^1, Nle^8,18, β-Ala^17, 2-Nal^23] hPTH (1-34)-NH2]	0.22	46
SVSEIQL[Nle]HSLGKHLNS[β3hI]ERVE[1Nal]LRKLLQDVHNF-NH2 [[Nle^8, Ser^10, β-hIle^18, 1-Nal^23, Leu^27] hPTH (1-34)-NH2]	0.18	17
SVSEIQL[Nle]HNLGKHLN[βAla][Nle]ERVE[1Nal]LRKLLQDVHNF-NH2 [[Nle^8,18, β-Ala^17, 1-Nal^23, Leu^27] hPTH (1-34)-NH2]	0.12	47
[Aib]VSEIQL[Nle]HNLGKHLN[βAla][hSer(OMe)]ERVE[1Nal]LRKLLQDVHNF-NH2 [[Aib^1, Nle^8, β-Ala^17, hSer(OMe)^18, 1-Nal^23, Leu^27] hPTH (1-34)-NH2]	0.06	49
SVSEIQL[hSer(OMe)]HNLGKHLN[βAla][hSer(OMe)]ERVE[1Nal]LRKLLQDVHNF-NH2 [[hSer(OMe)^8,18, β-Ala^17, 1-Nal^23, Leu^27] hPTH(1-34)-NH2]	0.88	> 270
SVSEIQL[Nle]HNLGKHLNS[β3hI]ERVE[1Nal]LRKLLQHVHNF-NH2 [[Nle^8, β-hIle^18, 1-Nal^23, Leu^27, His^30] hPTH (1-34)-NH2]	0.18	13
AVSEIQL[Nle]HNLGKHLN[βAla][Nle]ERVE[2Nal]LRKKLQDVHNF-NH2 (N-terminus assumed; SMILES CCCC[C@H](NC(=O)CCNC(=O)[C@H](CC(N)=O)NC(=O)[C@H](CC(C)C)NC(=O)[C@H](Cc1c[nH]cn1)NC(=O)[C@H](CCCCN)NC(=O)CNC(=O)[C@H](CC(C)C)NC(=O)[C@H](CC(N)=O)NC(=O)[C@H](Cc1c[nH]cn1)NC(=O)[C@H](CCCC)NC(=O)[C@H](CC(C)C)NC(=O)[C@H](CCC(N)=O)NC(=O)[C@@H](NC(=O)[C@H](CCC(=O)O)NC(=O)[C@H](CO)NC(=O)[C@@H](NC(=O)[C@H](C)N)C(C)C)[C@@H](C)CC)C(=O)N[C@@H](CCC(=O)O)C(=O)N[C@@H](CCCNC(=N)N)C(=O)N[C@H](C(=O)N[C@@H](CCC(=O)O)C(=O)N[C@@H](Cc1ccc2ccccc2c1)C(=O)N[C@@H](CC(C)C)C(=O)N[C@@H](CCCNC(=N)N)C(=O)N[C@@H](CCCCN)C(=O)N[C@@H](CCCCN)C(=O)N[C@@H](CC(C)C)C(=O)N[C@@H](CCC(N)=O)C(=O)N[C@@H](CC(=O)O)C(=O)N[C@H](C(=O)N[C@@H](Cc1c[nH]cn1)C(=O)N[C@@H](CC(N)=O)C(=O)N[C@@H](Cc1ccccc1)C(N)=O)C(C)C)C(C)C) [[Ala^1, Nle^8,18, β-Ala^17, 2-Nal^23] hPTH (1-34)-NH2]	0.22	95
SVSEIQL[Nle]HNLGKHLNS[β3hI]ERVE[1Nal]LRKLLQDVHNK-NH2 [[Nle^8, β-hIle^18, 1-Nal^23, Leu^27, Lys^34] hPTH (1-34)-NH2]	0.1	17
SVSEIQL[Nle]HNLGKHLES[β3hI]ERVE[1Nal]LRKLLQDVHNF-NH2 [[Nle^8, Glu^16, β-hIle^18, 1-Nal^23, Leu^27] hPTH (1-34)-NH2]	0.16	37
[Aib]VSEIQL[Nle]HSLGKHLKS[β3hI]ERVE[1Nal]LRKLLQRVHEE-NH2 [[Aib^1, Nle^8, Ser^10, Lys^16, β-hIle^18, 1-Nal^23, Leu^27, Arg^30, Glu^33, Glu^34] hPTH (1-34)-NH2]	0.04	4
